Test results reported in paper PMC11784651.
pKd: −log10 of the molar value.

What was measured:
[1] = target: Biotinylated human CD38-Avi-His (human); assay: SPR
[2] = target: CD38 (soluble, in the SEC-MALS and electron microscopy of the ISB 1442/CD38 complex) (human); assay: SEC-MALS
[3] = target: Biotinylated human CD38-Avi-His (Acrobiosystems, catalog NO: CD8-H82E7) (human); assay: SPR
[4] = target: ISB 1442, CD47 x CD38 bispecific biparatopic antibody (2 + 1 BEAT format) (human); assay: flow cytometry on cells

With ISB 1442 (bispecific antibody) the pKd [1] was over 11.00.

For “ISB 1442, CD47 x CD38 bispecific biparatopic antibody (2 + 1 BEAT format) (bispecific antibody)”, the stoichiometry N (ISB 1442 per CD38 (2:2 complex)) [2] was 1 and the fold slower dissociation at 300 RU than at 10 RU CD38 surface density [3] was 5.8 fold.

“soluble CD38 (sCD38) (domain or fragment)” showed a molar ratio CD38/antibody at IC50 (mol CD38 per mol antibody) [4] of 2.32.
